Data on 13 molecules can be found in patent US20240294611A1 (University of Texas, published 2024).

Where “and” joins values, the source holds several entries; their conditions need not be identical. Equal entries are not always repeated. Where two headings read alike, the source gives them in different places.

Experiment [1] deals with T1, aglycosylated HexaPro (HexaPro treated with Endo H) (SARS-CoV-2, UniProt P0DTC2 14-1208). Nature of the experiment: BLI equilibrium, IgG on anti-Fc sensor.
Experiment [2] deals with T1, aglycosylated HexaPro (HexaPro treated …). Nature of the experiment: BLI equilibrium, IgG on anti-Fc tips.
Experiment [3] deals with T2, SARS-CoV-2 HexaPro S2 (isolated S2 domain) (SARS-CoV-2, UniProt P0DTC2 697-1208).
T2 construct: range 697-1208
Put plainly: BLI equilibrium, IgG on anti-Fc tips.

Experiment [4] concerns the target T2, SARS-CoV-2 HexaPro S2 (isolated S2 …). Put plainly: BLI; column head says Fab Kd, footnote says immobilized IgG. A general note: BLI is a label-free optical method that tracks binding on a fibre tip over time.
Experiment [5] deals with soluble SARS-CoV-2 spike protein variant 4PDS (SARS-CoV-2, UniProt P0DTC2 14-1208).
For experiment [6], the target named is HexaPro E1031R (SARS-CoV-2, UniProt P0DTC2 14-1208).
The target in experiment [7] is T3, wild-type SARS-CoV-2 spike without stabilizing modifications (on cells or pseudovirus) (SARS-CoV-2, UniProt P0DTC2 14-1273). Put plainly: cell-based or functional assay.
In experiment [8] the target is T4, SARS-CoV-2 D614G spike without stabilizing modifications (on cells or pseudovirus) (SARS-CoV-2, UniProt P0DTC2 14-1273). Put plainly: cell-based or functional assay.
The target in experiment [9] is SARS-CoV-2 B.1.1.7 (variant Alpha) spike on pseudovirus (SARS-CoV-2, UniProt P0DTC2 14-1273). Nature of the experiment: cell-based or functional assay.
Experiment [10] concerns the target T3, wild-type SARS-CoV-2 spike without …. Nature of the experiment: cell-based or functional assay. This is another data set of the same source.
For experiment [11], the target named is T4, SARS-CoV-2 D614G spike without …. Put plainly: cell-based or functional assay. The source holds these as a separate data set.
For experiment [12], the target named is T2, SARS-CoV-2 HexaPro S2 (isolated S2 …).
Experiment [13] shares this target. This is another data set of the same source.
Experiment [14] shares this target. This is another data set of the same source.
Experiment [15] has the same target. This is another data set of the same source.
The target is the same in experiment [16]. The source holds these as a separate data set.

By Kd is commonly meant the equilibrium constant for the complex coming apart. One may read the kon as the second-order rate constant of association. As usually defined, the koff is the rate constant with which the complex falls apart.

B1: 4A5 full-length antibody (mouse variable region-human IgG1 constant region chimera) (antibody, V domains shown)
VH: QVQLQQSGAELAKPGASVKMSCKASGYTFTSYWMHWVKQRPGQGLEWVGMIDPSNSETRLNQKFKDKATLNVDKSSNTAYMQLSSLTSEDSAVYYCARLGRYWGQGTTLTVSS
VL: DIVMTQSHKFMSTSVGDRVSITCKASQNVGANVAWYQQKPGQSPKALIYSASYRYSGVPDRFTGSGSGTDFTLTISNVQSEDLAEYFCQQYNSYPYTSGGGTKLEIKR
In the case of B1, the equilibrium dissociation constant (Kd) in experiment [1] was found to be 10 nM; in experiment [2], 10 nM; in experiment [3], 11 nM; in experiment [4] it was 11 nM.

B2: 4H2 full-length antibody (mouse variable region-human IgG1 constant region chimera) (antibody, V domains shown)
VH: EVQVVESGGGLVQPGGSRKLSCAASGFTFSSYGMSWVRQTPDKRLEWVATISSGGSYTYYPDSVKGRFTISRDNAKNNLYLQMSSLKSEDTAMYYCARDGYGNYVGMDYWGQGTSVTVSS
VL: DIVLTQSPAIMSASPGEKVTITCSASSSVSYMHWFQQKPGTSPKLWIYSTSNLASGVPARFSGSGSGTSYSLTISSMEAEDAATYYCQQWSSNSYTFGGGTKLEIKR
For the molecule B2, the Kd in [1] came out at 9 nM; in experiment [2], 9 nM; in [3] it was 63 nM; in experiment [4], 63 nM.

B3: combination of AM3A3-5 heavy chain with unmodified hu3A3 (WT; ven3A3) light chain (antibody, V domains shown)
VH: QVQLVQSGAEVLKPGASVKLSCKASGFNIKDTYIHWLKQAPGQRLEWIGRIGPAIGNTIYAPKFQGKATITTDTSASTAYLELSSLRSEDTAVYYCARYYGYAYYYFDYWGQGTTVTVSS
VL: DIVMTQSPLSVPVTPGEPVSISCRSSKSLLHSNGNTYLYWFLQKPGQSPQLLIYRMSNLASGVPDRFSGSGSGTAFTLKISRVEAEDVGVYYCMQYLEYPLTFGAGTKLEIK
With B3, the “Fold improvement over WT/WT” value in experiment [5] is 0.5 fold.

B4: combination of AM3A3-3 heavy chain with AM3A3-5 light chain (antibody, V domains shown)
VH: QVQLVQSGADVLKPGASVKLSCKASGFNIKNTYIHWLKQAPGQRLEWIGRIGPAIGNTIYAPKFQGKATITTDTSASTAYLELSSLRSEDTAVYYCARYYGSSYYYLDYWGQGTTVTVSS
VL: DIVMTQSPLSVPVTPGEPVSISCRSSKSLLHSNGNTYLYWFLQKPGQSPQLLIARMSTLASGVPDRFSGSGSGTAFTLKISRVEAEDVGVYYCMQYLEYPLTFGAGTKLEIK
As to B4, in experiment [5], the “Fold improvement over WT/WT” value is 95.6 fold.

B5: humanized 3A3 with ven3A3VH and ven3A3VL (antibody, V domains shown)
VH: QVQLVQSGAEVLKPGASVKLSCKASGFNIKDTYIHWLKQAPGQRLEWIGRIGPAIGNTIYAPKFQGKATITTDTSASTAYLELSSLRSEDTAVYYCARYYGSSYYYFDYWGQGTTVTVSS
VL: DIVMTQSPLSVPVTPGEPVSISCRSSKSLLHSNGNTYLYWFLQKPGQSPQLLIYRMSNLASGVPDRFSGSGSGTAFTLKISRVEAEDVGVYYCMQYLEYPLTFGAGTKLEIK
In the case of B5, the “Fold improvement over WT/WT” value in [5] amounted to 1 fold.

B6: combination of unmodified hu3A3 (WT; ven3A3) heavy chain with AM3A3-3 light chain (antibody, V domains shown)
VH: QVQLVQSGAEVLKPGASVKLSCKASGFNIKDTYIHWLKQAPGQRLEWIGRIGPAIGNTIYAPKFQGKATITTDTSASTAYLELSSLRSEDTAVYYCARYYGSSYYYFDYWGQGTTVTVSS
VL: DIVMTQSPLSVPVTPGEPVSISCRSSKSLHHSNGNTYLYWFLQKPGQSPQLLIYRMSNLASGVPDRFSGSGNGTAFTLKISRVEAEDVGVYYCMQYLEYPLTFDAGTKLEIK
Take B6: the “Fold improvement over WT/WT” value in [5] was 13.7 fold.

B7: AM3A3-5 (affinity matured humanized 3A3) (antibody, V domains shown)
VH: QVQLVQSGAEVLKPGASVKLSCKASGFNIKDTYIHWLKQAPGQRLEWIGRIGPAIGNTIYAPKFQGKATITTDTSASTAYLELSSLRSEDTAVYYCARYYGYAYYYFDYWGQGTTVTVSS
VL: DIVMTQSPLSVPVTPGEPVSISCRSSKSLLHSNGNTYLYWFLQKPGQSPQLLIARMSTLASGVPDRFSGSGSGTAFTLKISRVEAEDVGVYYCMQYLEYPLTFGAGTKLEIK
As to B7, in experiment [5], the “Fold improvement over WT/WT” value is 50.5 fold.

B8: combination of AM3A3-3 heavy chain with unmodified hu3A3 (WT; ven3A3) light chain (antibody, V domains shown)
VH: QVQLVQSGADVLKPGASVKLSCKASGFNIKNTYIHWLKQAPGQRLEWIGRIGPAIGNTIYAPKFQGKATITTDTSASTAYLELSSLRSEDTAVYYCARYYGSSYYYLDYWGQGTTVTVSS
VL: DIVMTQSPLSVPVTPGEPVSISCRSSKSLLHSNGNTYLYWFLQKPGQSPQLLIYRMSNLASGVPDRFSGSGSGTAFTLKISRVEAEDVGVYYCMQYLEYPLTFGAGTKLEIK
B8: in experiment [5], the “Fold improvement over WT/WT” value turned out to be 11.6 fold.

B9: AM3A3-3 (affinity matured humanized 3A3) (antibody, V domains shown)
VH: QVQLVQSGADVLKPGASVKLSCKASGFNIKNTYIHWLKQAPGQRLEWIGRIGPAIGNTIYAPKFQGKATITTDTSASTAYLELSSLRSEDTAVYYCARYYGSSYYYLDYWGQGTTVTVSS
VL: DIVMTQSPLSVPVTPGEPVSISCRSSKSLHHSNGNTYLYWFLQKPGQSPQLLIYRMSNLASGVPDRFSGSGNGTAFTLKISRVEAEDVGVYYCMQYLEYPLTFDAGTKLEIK
Consider B9, for which the “Fold improvement over WT/WT” value in experiment [5] was 63.3 fold.

B10: combination of unmodified hu3A3 (WT; ven3A3) heavy chain with AM3A3-5 light chain (antibody, V domains shown)
VH: QVQLVQSGAEVLKPGASVKLSCKASGFNIKDTYIHWLKQAPGQRLEWIGRIGPAIGNTIYAPKFQGKATITTDTSASTAYLELSSLRSEDTAVYYCARYYGSSYYYFDYWGQGTTVTVSS
VL: DIVMTQSPLSVPVTPGEPVSISCRSSKSLLHSNGNTYLYWFLQKPGQSPQLLIARMSTLASGVPDRFSGSGSGTAFTLKISRVEAEDVGVYYCMQYLEYPLTFGAGTKLEIK
On to B10, for which the “Fold improvement over WT/WT” value in [5] came out at 63.7 fold.

B11: combination of AM3A3-5 heavy chain with AM3A3-3 light chain (antibody, V domains shown)
VH: QVQLVQSGAEVLKPGASVKLSCKASGFNIKDTYIHWLKQAPGQRLEWIGRIGPAIGNTIYAPKFQGKATITTDTSASTAYLELSSLRSEDTAVYYCARYYGYAYYYFDYWGQGTTVTVSS
VL: DIVMTQSPLSVPVTPGEPVSISCRSSKSLHHSNGNTYLYWFLQKPGQSPQLLIYRMSNLASGVPDRFSGSGNGTAFTLKISRVEAEDVGVYYCMQYLEYPLTFDAGTKLEIK
For the molecule B11, in experiment [5], the “Fold improvement over WT/WT” value amounted to 4.3 fold.

B12: 3A3 full-length antibody (mouse variable region-human IgG1 constant region chimera) (antibody, V domains shown)
VH: QVQLQQSGAELLKPGASVKLSCTASGFNIKDTYIHWLKQRPEQGLEWIGRIGPAIGNTIYAPKFQGKATITTDTSSNTAYLQLSSLTSEDTAVYYCARYYGSSYYYFDYWGQGTTLTVSS
VL: DIVMTQSAPSVPVTPGESVSISCRSSKSLLHSNGNTYLYWFLQRPGQSPQLLIYRMSNLASGVPDRFSGSGSGTAFTLRISRVEAEDVGVYYCMQYLEYPLTFGAGTKLELKR
In the case of B12, the Kd is 1.5 nM in experiment [6], 8.4 nM in experiment [1] and 7.9 nM in [2]. The same molecule came in with a kon in experiment [6] of 2.88e+06 M⁻¹ s⁻¹. For the same molecule, the “Pseudovirus IC50” value in experiment [7] was determined as 212 nM; in experiment [8], 94 nM; in experiment [9], 119 nM. Also, the “IC50 of pseudovirus entry (FIG. 3A)” value in experiment [10] was 25.6 µg/mL; in experiment [11], 2.05 µg/mL. Further, the “IC50 of pseudovirus infection (FIG. 3A)” value in [10] is about 173 nM; in experiment [11], about 14 nM.

B13: 3A3 Fab (mouse Fab fragment) (Fab, V domains shown)
VH: QVQLQQSGAELLKPGASVKLSCTASGFNIKDTYIHWLKQRPEQGLEWIGRIGPAIGNTIYAPKFQGKATITTDTSSNTAYLQLSSLTSEDTAVYYCARYYGSSYYYFDYWGQGTTLTVSS
VL: DIVMTQSAPSVPVTPGESVSISCRSSKSLLHSNGNTYLYWFLQRPGQSPQLLIYRMSNLASGVPDRFSGSGSGTAFTLRISRVEAEDVGVYYCMQYLEYPLTFGAGTKLELKR
For the molecule B13, the Kd in experiment [12] is 2.2 nM; in experiment [13] it was 3.2 nM; in [14], 2.2 nM and 3.2 nM; in experiment [15], about 2.5 nM; in experiment [16], 3.6 nM. Also, the koff in experiment [12] is 0.0049 s⁻¹; in experiment [15], 0.005 s⁻¹; in [16], 0.0046 s⁻¹. Moreover, the kon in experiment [12] is 2.3e+06 M⁻¹ s⁻¹; in [15], about 2e+06 M⁻¹ s⁻¹; in experiment [16] it was 1.3e+06 M⁻¹ s⁻¹.
